This is an account of results in patent publication US20130136748A1 (Ablynx, published 2013).

Assay [1] has as its target T1, human HER1 (human, UniProt P00533 25-1210).
T1 construct: also called EGFR; ErbB1
Description: FACS CHO-HER1, 5 µg/ml.

The target of assay [2] is T2, human HER2 (human, UniProt P04626 23-1255).
T2 construct: also called hHER2
Description: FACS CHO-HER2, 5 µg/ml.

In assay [3] the target is human HER4 (human, UniProt Q15303 26-1308). Description: FACS CHO-HER4, 5 µg/ml.
Assay [4] deals with T3, hHER3 full length (human, UniProt P21860 20-1342). As to the kind of experiment: cell-based or functional assay.
Assay [5] has as its target T4, hHER3 ECD (human HER3 extracellular domain) (human, UniProt P21860 20-643).
T4 construct: also called recombinant HER3-ECD
Description: SPR off rate on HER3-ECD.

Assay [6] deals with T5, human HER3-Fc (R&D Systems, 348-RB) (human, UniProt P21860 20-643).
T5 construct: Bought; also called hHER3-Fc; Fc-HER3; Fc part of the bought chimera not given, not described
As to the kind of experiment: HRG competition alphascreen. For orientation: Bead proximity is the source of the signal in Alpha formats.

The target in assay [7] is T3, hHER3 full length. As to the kind of experiment: cell-based or functional assay. This is another data set of the same source.
Assay [8] addresses T4, hHER3 ECD (human HER3 extracellular …). As to the kind of experiment: SPR off rate on HER3-ECD. The source holds these as a separate data set.
Assay [9] deals with T5, human HER3-Fc (R&D Systems, 348-RB). As to the kind of experiment: 34C07 competition alphascreen.

Where two headings read alike, the source gives them in different places.

Sequence of human HER4 (Q15303 26-1308 limits assumed): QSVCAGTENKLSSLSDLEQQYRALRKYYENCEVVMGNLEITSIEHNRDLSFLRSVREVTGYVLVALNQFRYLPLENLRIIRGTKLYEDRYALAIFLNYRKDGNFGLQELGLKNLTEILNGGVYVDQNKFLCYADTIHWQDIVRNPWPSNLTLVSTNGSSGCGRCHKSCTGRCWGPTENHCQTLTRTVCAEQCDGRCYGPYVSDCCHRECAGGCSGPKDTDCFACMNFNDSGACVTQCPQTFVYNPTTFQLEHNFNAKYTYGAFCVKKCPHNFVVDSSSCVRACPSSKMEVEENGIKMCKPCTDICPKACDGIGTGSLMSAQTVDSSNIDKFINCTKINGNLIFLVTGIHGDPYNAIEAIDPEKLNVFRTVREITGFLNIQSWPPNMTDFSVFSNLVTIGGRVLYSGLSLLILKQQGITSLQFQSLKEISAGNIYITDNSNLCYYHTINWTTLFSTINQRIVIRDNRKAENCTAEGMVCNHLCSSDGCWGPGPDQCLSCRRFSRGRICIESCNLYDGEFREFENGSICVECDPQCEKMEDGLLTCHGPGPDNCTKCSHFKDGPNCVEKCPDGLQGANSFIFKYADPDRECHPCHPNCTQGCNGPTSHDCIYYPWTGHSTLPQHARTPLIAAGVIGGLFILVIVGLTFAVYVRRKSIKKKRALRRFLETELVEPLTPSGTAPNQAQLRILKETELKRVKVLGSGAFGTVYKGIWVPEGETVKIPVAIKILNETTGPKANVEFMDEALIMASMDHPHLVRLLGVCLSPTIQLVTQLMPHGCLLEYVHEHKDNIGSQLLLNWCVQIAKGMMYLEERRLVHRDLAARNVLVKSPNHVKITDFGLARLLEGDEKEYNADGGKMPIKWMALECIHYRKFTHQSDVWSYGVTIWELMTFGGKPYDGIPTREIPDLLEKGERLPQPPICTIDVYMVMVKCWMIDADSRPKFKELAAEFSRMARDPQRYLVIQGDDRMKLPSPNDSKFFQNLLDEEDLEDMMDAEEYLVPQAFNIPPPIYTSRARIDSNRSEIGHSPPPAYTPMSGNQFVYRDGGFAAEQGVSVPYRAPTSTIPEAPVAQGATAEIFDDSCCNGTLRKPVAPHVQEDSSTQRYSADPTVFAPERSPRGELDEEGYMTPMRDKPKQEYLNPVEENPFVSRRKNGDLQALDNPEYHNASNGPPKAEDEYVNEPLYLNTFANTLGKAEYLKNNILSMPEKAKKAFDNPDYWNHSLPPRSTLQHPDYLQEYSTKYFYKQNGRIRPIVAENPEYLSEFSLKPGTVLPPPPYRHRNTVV

Consider “Anti-HER2 pAb (R&D Systems AF1129) (antibody)”, for which the MCF in assay [1] worked out at 323; in assay [2], 41000; in [3], 578.
On the same counts, the results for “Anti-HER1 pAb (R&D Systems AF231) (antibody)” are 28200, 888 and 418.
On to “Anti-HER4 pAb (R&D Systems AF1131) (antibody)”, for which the MCF in assay [1] came out at 584; in [2] it was 932; in [3] it was 17000.

B1: HER3MS00118 (VHH)
VHH: EVQLVESGGGLVQPGGSLRLSCAASGSIGGLNAMAWYRQAPGKERELVAGIFGVGSTRYADSVKGRFTISRDNSKNTVYLQMNSLRAEDTAVYYCRMSSVTRGSSDYWGQGTLVTVSS
notes: 17B05 second round, S84A; also called HER3MS0118
In general, koff refers to the rate constant with which the complex falls apart. Read a high koff as a short-lived complex. One may read the IC50 as the concentration at which inhibition is half-maximal. As for B1, the “IC50 pHER3 blocking, HRG stimulated MCF7” value in assay [4] is 2.69e-09 M. Moreover, in assay [5], the off-rate constant (koff) was determined as 0.00018 s⁻¹. In assay [6], this molecule returned a concentration for half-maximal inhibition (IC50) of 0.6 nM.

B2: HER3MS00120 (VHH)
VHH: DVQLVESGGGLVQPGGSLRLSCAASGSIGGLNAMAWYRQAPGKERELVAGIFGVGSTRYADSVKGRFTISRDNSKNTVYLQMNSLRAEDTAVYYCRMSSVTRGSSDYWGQGTLVTVSS
notes: 17B05 second round, E1D, S84A; also called HER3MS0120
B2: the “IC50 pHER3 blocking, HRG stimulated MCF7” value in assay [4] was 4.28e-09 M. The koff in assay [5] was found to be 0.00019 s⁻¹. The molecule also displayed an IC50 in assay [6] of 0.75 nM.

B3: HER3MS00121 (VHH)
VHH: DVQLVESGGGLVQPGGSLRLSCAASGSIGGLNAMAWYRQAPGKERELVAGIFGVGSTRYADSVKGRFTISRDNSKNTVYLQMNSLRPEDTAVYYCRMSSVTRGSSDYWGQGTLVTVSS
notes: 17B05 second round, E1D, S84P (final variant for N-terminal use); also called HER3MS0121
As for B3, the “IC50 pHER3 blocking, HRG stimulated MCF7” value in assay [4] was 3.53e-09 M. The same molecule had a koff in assay [5] of 0.00018 s⁻¹. This molecule also displayed an IC50 in assay [6] of 0.55 nM.

B4: HER3MS00119 (VHH)
VHH: EVQLVESGGGLVQPGGSLRLSCAASGSIGGLNAMAWYRQAPGKERELVAGIFGVGSTRYADSVKGRFTISRDNSKNTVYLQMNSLRPEDTAVYYCRMSSVTRGSSDYWGQGTLVTVSS
notes: 17B05 second round, S84P (final variant); also called HER3MS0119
Consider B4, for which the “IC50 pHER3 blocking, HRG stimulated MCF7” value in [4] was found to be 1.7e-09 M. The same molecule displayed a koff in assay [5] of 0.00018 s⁻¹. This molecule also yielded a half-maximal inhibitory concentration (IC50) in assay [6] of 0.79 nM.

B5: HER3MS00123 (VHH)
VHH: EVQLVESGGGLVQPGGSLRLSCAASGSIFRINAMAWYRQAPGKQRELVAEITAGGSTNYADSVKGRFTISRDNSWNTLYLQMNSLRPEDTAVYYCNLDHYTTWDRRSAYWGQGTLVTVSS
Take B5: in [7], the “IC50 pHER3 blocking, MCF7” value worked out at 3.09e-08 M. The same molecule displayed a koff in [8] of 0.00046 s⁻¹. In assay [9], this molecule showed an IC50 of 7.6 nM.

B6: HER3MS00127 (VHH)
VHH: DVQLVESGGGLVQPGGSLRLSCAASGSIFRINAMAWYRQAPGKQRELVAEITAGGSTNYADSVKGRFTISRDNSWNTLYLQMNSLRPEDTAVYYCNLDHYTTWDRRSAYWGQGTLVTVSS
With B6, the “IC50 pHER3 blocking, MCF7” value in [7] was determined as 3.88e-08 M. Further, the dissociation rate constant (koff) in [8] was 0.00046 s⁻¹. Besides, in assay [9], the IC50 was 8.5 nM.

B7: HER3MS00128 (VHH)
VHH: DVQLVESGGGLVQPGGSLRLSCAASGSIFRINAMAWYRQAPGKQRELVAEITAGGSTNYADSVKGRFTISRDNSWNTLYLQMNSLRAEDTAVYYCNLDHYTTWDRRSAYWGQGTLVTVSS
As to B7, the “IC50 pHER3 blocking, MCF7” value in assay [7] was found to be 4.05e-08 M. The molecule also yielded a koff in assay [8] of 0.00046 s⁻¹. For the same molecule, in [9], the IC50 came to 6.7 nM.

B8: HER3MS00124 (VHH)
VHH: EVQLVESGGGLVQPGGSLRLSCAASGSIFRINAMAWYRQAPGKQRELVAEITAGGSTNYADSVKGRFTISRDNSWNTLYLQMNSLRAEDTAVYYCNLDHYTTWDRRSAYWGQGTLVTVSS
B8: the “IC50 pHER3 blocking, MCF7” value in assay [7] was determined as 3.05e-08 M. Also, in [8], the koff is 0.00045 s⁻¹. Besides, the IC50 in assay [9] came to 7.1 nM.
